Here are results for one molecule from article PMC5771124, “Characterization of a functional insertion sequence ISSau2 from Staphylococcus aureus”.

This data set concerns the target ISSau2 transposase OrfAB (Staphylococcus aureus E48 (ISSau2 in …, UniProt UPI0010FBCD58 1-522, F226L)). Kind of data set: EMSA; Mg2+, excess poly(dI-dC), 0.42 ug OrfAB. The following applies: protein: recombinant; tags: N-terminal 6-His (pET32a vector fusion); label: biotin end label.

B1: IRL42 (dsDNA)
DNA 1: TGAAATGCTCCCTTCAAAGTAGACATTGAAAAAATGAAAACT
DNA 2: AGTTTTCATTTTTTCAATGTCTACTTTGAAGGGAGCATTTCA
For the molecule B1, the binding result is “binds”.
